Source: US20050054575A1 (US Dept. of Health and Human Services, published 2005)

Tests used:
HLA-A2 [1] = target: T1, HLA-A2 (human); assay: flow cytometry of HLA-A2 on T2A2 cells, peptide 0 to 50 µg/ml
T1 construct: whole, on cells; also called HLA-A2.1; MHC-class I A2
Description: (§1) Peptide Binding to HLA-A2. […] Briefly, 1×10⁶ cells in serum-free Iscove's modified Dulbecco's complete medium were incubated with peptides at a concentration of 50 μg/ml in 24 well culture plates at 37° C. in 5% CO₂. Flow cytometry for peptide binding was performed using T2 cells and single-color analysis. After cells were washed three times in DPBS, as described above, they were incubated for 1 h with HLA-A2 specific MAb (One Lambda, Inc.) using […] of a 1× working dilution per 10⁶ cells. UPC-10 (Cappel/Organon Teknika) was used as isotype control. The cells were washed three times and incubated with 1:100 dilution of FITC-labeled anti-mouse IgG (Becton Dickinson). Analysis was conducted with the FACScan, as described above. Cells were maintained on ice during all cell preparation and staining.

HLA-A2 [2] = target: T1, HLA-A2; assay: flow cytometry of HLA-A2 on T2A2 cells
Description: as §1

HLA-A2 [3] = target: T1, HLA-A2; assay: flow cytometry of HLA-A2 on peptide-loaded T2A2 cells
Description: as §1

Row | binding result (HLA-A2 [2]) | Binder | other results
1 | – | VLSNDVCAQV (Synthetic analog peptide; also called agonist peptide PSA-3A) [PSA-3 (L-155) also called PSA-3A] | binding result (HLA-A2 [1]): binds
2 | binds | YISNDVCAQV (Synthetic analog peptide) [PSA-3 (Y-154)] | –
3 | binds | YLSNDVCAQV (Synthetic analog peptide; also called PSA-3 (L155/Y154)) [PSA-3 (Y-154/L-155)] | –
4 | – | VISNDVCAQL (Synthetic analog peptide) [PSA-3 (L-163)] | binding result (HLA-A2 [3]): no binding (tested: 0 to 50 µg/ml)
